For orientation: Kd means a measure of binding affinity in units of concentration.

From publication PMC7442826 (2020) come the findings set out here.

The labels stand for the following.
B1: EHBP1 CH (calponin homology) domain [human] / EHBP1 bMERB domain (bMERB_(1060-1212), full-length bMERB domain) [human] (parent complex)
chain 1: GRKPNASQSLLVWCKEVTKNYRGVKITNFTTSWRNGLSFCAILHHFRPDLIDYKSLNPQDIKENNKKAYDGFASIGISRLLEPSDMVLLAIPDKLTVMTYLYQIRAHFSGQ
chain 2: not shown

The variants in the first experiment derive from B1. Description: ITC.
As to chain 1 M98A, the dissociation constant (Kd) was 7.6 µM.

Variants of B1 are the subject of another experiment. In words: ITC. The source holds these as a separate data set.
For the variant chain 1 D93A, the Kd was determined as 43.5 µM.

The variants in a further experiment derive from B1. In words: ITC. This is another data set of the same source.
On to chain 1 Y102A, for which the Kd was found to be 5.65 µM.

The next experiment covers variants of B1. Description: ITC. This is another data set of the same source. (In general: In ITC the heat of successive injections is recorded.)
Turning to chain 1 Q103A, the Kd stood at 3.85 µM.
